Assay results reported in patent US20190119366A1 (ADC THERAPEUTICS, published 2019).
Changes are numbered by the printed parent chain.

T1: recombinant human KAAG1 (Kidney associated antigen 1) (human, UniProt Q9UBP8 1-84)
T1 construct: also called KAAG1 protein
T1 sequence: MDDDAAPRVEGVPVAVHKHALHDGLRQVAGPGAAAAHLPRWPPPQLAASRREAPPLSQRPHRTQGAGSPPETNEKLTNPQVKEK

T2: KAAG1 on the surface of cancer cells (human, UniProt Q9UBP8 1-84)
T2 construct: Endogenous KAAG1 of human cancer cell lines and of tumor tissue sections; also called KAAG1 antigen
T2 sequence: T1 sequence

B1: 3A9 anti-KAAG1 antibody (antibody, V domains shown)
VH: QVQVQQPGAELVRPGASVTLSCKASGYIFTDYEVHWVRQRPVHGLEWIGVIDPETGDTAYNQKFKGKATLTADKSSSTAYMELSSLTAEDSAVYYCIGYADYWGQGTTLTVSS
VL: DIVMTQSPSSLAMSLGQKVTMSCKSSQSLLNSNNQLNYLAWYQQKPGQSPKLLVYFASTRKSGVPDRFIGSGSGTDFTLTITSVQAEDLADYFCQQHFNTPLTFGAGTKLELK
notes: Variable regions only; Isolated from a Fab library
B2: humanized 3A4 antibody Lh1Hh2 (antibody, human IgG1, kappa, V domains shown)
VH: QIQLVQSGAEVKKPGASVKVSCKASGYTFTDDYMSWVRQAPGQGLEWMGDINPYNGDTNYNQKFKGRVTITADKSTSTAYMELSSLRSEDTAVYYCARDPGAMDYWGQGTLVTVSS
VL: DIVMTQTPLSLPVTPGEPASISCRSSQSLLHSNGNTYLEWYLQKPGQSPQLLIYTVSNRFSGVPDRFSGSGSGTDFTLKISRVEAEDVGVYYCFQGSHVPLTFGQGTKLEIKR
notes: Human IgG1/kappa
B3: humanized 3A4 antibody Lh2Hh1 (antibody, human IgG1, kappa, V domains shown)
VH: B2 VH with I2V, K74T
VL: B2 VL with I2V, Q50K
notes: Human IgG1/kappa
B4: humanized 3A4 antibody Lh2Hh4 (antibody, human IgG1, kappa, V domains shown)
VH: B2 VH with R38K, M48I, R67K, V68A, I70L, A72V
VL: B2 VL with I2V, Q50K
notes: Human IgG1/kappa; 10 mouse framework residues retained; also called H4L2
B5: humanized 3A4 antibody Lh2Hh2 (antibody, human IgG1, kappa, V domains shown)
VH: B2 VH
VL: B2 VL with I2V, Q50K
notes: Human IgG1/kappa
B6: humanized 3A4 antibody Lh1Hh1 (antibody, human IgG1, kappa, V domains shown)
VH: B2 VH with I2V, K74T
VL: B2 VL
notes: Human IgG1/kappa; 100% humanized frameworks; also called H1 L1; H1L1
B7: humanized 3A4 antibody Lh1Hh4 (antibody, human IgG1, kappa, V domains shown)
VH: B2 VH with R38K, M48I, R67K, V68A, I70L, A72V
VL: B2 VL
notes: Human IgG1/kappa
B8: humanized 3A4 antibody Lh2Hh3 (antibody, human IgG1, kappa, V domains shown)
VH: B2 VH with M48I, V68A, I70L, A72V
VL: B2 VL with I2V, Q50K
notes: Human IgG1/kappa
B9: humanized 3A4 antibody Lh1Hh3 (antibody, human IgG1, kappa, V domains shown)
VH: B2 VH with M48I, V68A, I70L, A72V
VL: B2 VL
notes: Human IgG1/kappa
B10: 3A4-ADC1 (chimeric 3A4 conjugated to a cytotoxic drug via a cleavable peptide linker) (antibody, human IgG1, kappa, V domains shown)
VH: QIQLVQSGPEMVKPGASVKMSCKASGYTFTDDYMSWVKQSHGKSLEWIGDINPYNGDTNYNQKFKGKAILTVDKSSSTAYMQLNSLTSEDSAVYYCARDPGAMDYWGQGTSVTVSS
VL: DVVMTQTPLSLAVSLGDQASISCRSSQSLLHSNGNTYLEWYLQKPGQSPKLLIHTVSNRFSGVPDRFSGSGSGTDFTLKISRVEAEDLGVYYCFQGSHVPLTFGAGTRLELKR
modifications: cytotoxic drug conjugated via a highly stable peptide linker that is selectively cleaved by lysosomal enzymes; chain and residues of attachment not stated
B11: 3A4-ADC2 (chimeric 3A4 conjugated to an anti-mitotic drug via a non-cleavable linker) (antibody, human IgG1, kappa, V domains shown)
VH: B10 VH
VL: B10 VL
modifications: anti-mitotic drug conjugated via a non-cleavable linker; chain and residues of attachment not stated
B12: 3G10 anti-KAAG1 antibody (antibody, V domains shown)
VH: EIQLQQSGPELVKPGASVKISCKASGYTFTDNYMNWVKQSHGKSLEWIGDINPYYGTTTYNQKFKGKATLTVDKSSRTAYMELRGLTSEDSAVYYCARDDWFDYWGQGTLVTVSA
VL: DVLMTQTPRSLSVSLGDQASISCRSSQSLLHSNGNTYLEWYLQKPGQPPKVLIYKVSNRFSGVPDRFSGSGSGTDFTLKISGVEAEDLGVYYCFQGSHVPLTFGAGTKLELK

How the values were obtained:
[1] = target: T1, recombinant human KAAG1 (Kidney …); assay: not described; list of antibodies generated
[2] = target: T1, recombinant human KAAG1 (Kidney …); assay: SPR (BioRad ProteOn XPR36); fold difference of KD relative to LcHc
Description: (§1) Immediately after the activation, a 13 μg/mL solution of anti-human IgG Fc fragment specific in 10 mM NaOAc pH 4.5 was injected in the analyte direction at a flow rate of 25 μL/min until approximately 8000 resonance units (RUs) were immobilized. Remaining active groups were quenched by a 300 s injection of 1M ethanolamine at 30 μL/min in the analyte direction, and this also ensures mock-activated interspots are created for blank referencing. The screening of the 3A4 variants for binding to KAAG1 occurred in two steps: an indirect capture of 3A4 variants from cell supernatant onto the anti-human IgG Fc fragment specific surface in the ligand direction(vertical) followed by a KAAG1 injection in the analyte direction. Firstly, one buffer injection for 30 s at 100 uL/min in the ligand direction was used to stabilize the baseline. […] Four to five 3A4 variants along with wild-type 3A4 were simultaneously injected in individual ligand channels for 240 s at flow 25 μL/min. […] The first ligand channel was left empty to use as a blank control if required. This 3A4 capture step was immediately followed by two buffer injections in the analyte direction to stabilize the baseline, and then the gel filtration purified KAAG1 was injected. For a typical screen, five KAAG1 concentrations (8, 2.66, 0.89, 0.29, and 0.098 nM) and buffer control were simultaneously injected in individual analyte channels at 50 μL/min for 120 s with a 600s dissociation phase, resulting in a set of binding sensorgrams with a buffer reference for each of the captured 3A4 variants. The anti-human IgG Fc fragment specific—3A4 complexes were regenerated by a 18 s pulse of 0.85% phosphoric acid for 18 s at 100 μL/min to prepare the anti-human IgG Fc fragment specific surface for the next injection cycle. Sensorgrams were aligned and double-referenced using the buffer blank injection and interspots, and the resulting sensorgrams were analyzed using ProteOn Manager software v3.0.

[3] = target: T1, recombinant human KAAG1 (Kidney …); assay: SPR (BioRad ProteOn XPR36): antibody captured on an anti-human IgG Fc surface, KAAG1 injected as analyte, 1:1 Langmuir fit
Description: as §1

[4] = target: T1, recombinant human KAAG1 (Kidney …); assay: SPR (ProteOn XPR36), antibody captured on anti-human IgG Fc, KAAG1 as analyte
Description: as §1

[5] = target: T2, KAAG1 on the surface of cancer cells; assay: flow cytometry, MDA-231 cells
[6] = target: T1, recombinant human KAAG1 (Kidney …); assay: epitope mapping studies (method not described)

Binder | Fold diff. [2] | Kd [3] [nM] | koff [3] [s⁻¹] | kon [3] [M⁻¹ s⁻¹] | further results
B1 |  |  |  |  | binding result [1]: binds
B2 | 13.2 | 0.211 | 0.00119 | 5.65e+06 | 
B3 | 21.3 | 0.341 | 0.00237 | 6.97e+06 | 
B4 | 6.4 | 0.103 | 0.00047 | 4.57e+06 | Kd [4]: 0.1 nM; fold weaker affinity than the murine (LcHc) [4]: ~6 fold
B5 | 15.3 | 0.245 | 0.00181 | 7.4e+06 | 
B6 | 29.6 | 0.474 | 0.00328 | 6.93e+06 | Kd [4]: 0.47 nM; fold difference in binding affinity between the worse variant (H1 L1) and the best variant (H4L2) [4]: 4 fold
B7 | 9.3 | 0.149 | 0.000764 | 5.14e+06 | 
B8 | 14.3 | 0.228 | 0.00102 | 4.46e+06 | 
B9 | 9.3 | 0.149 | 0.00096 | 6.46e+06 | 
B10 |  |  |  |  | binding result [5]: binds
B11 |  |  |  |  | binding result [5]: binds
B12 |  |  |  |  | binding result [6]: binds
